The source of these data is US20230192845A1 (BLINK BIOMEDICAL, published 2023).

For assay [1], the target named is T1, human CD96 short isoform v2 expressed on CHO cells (human, UniProt P40200 22-585).
T1 construct: also called hCD96v2; CD96v2; not shown: C-terminal HA-tag
T1 sequence: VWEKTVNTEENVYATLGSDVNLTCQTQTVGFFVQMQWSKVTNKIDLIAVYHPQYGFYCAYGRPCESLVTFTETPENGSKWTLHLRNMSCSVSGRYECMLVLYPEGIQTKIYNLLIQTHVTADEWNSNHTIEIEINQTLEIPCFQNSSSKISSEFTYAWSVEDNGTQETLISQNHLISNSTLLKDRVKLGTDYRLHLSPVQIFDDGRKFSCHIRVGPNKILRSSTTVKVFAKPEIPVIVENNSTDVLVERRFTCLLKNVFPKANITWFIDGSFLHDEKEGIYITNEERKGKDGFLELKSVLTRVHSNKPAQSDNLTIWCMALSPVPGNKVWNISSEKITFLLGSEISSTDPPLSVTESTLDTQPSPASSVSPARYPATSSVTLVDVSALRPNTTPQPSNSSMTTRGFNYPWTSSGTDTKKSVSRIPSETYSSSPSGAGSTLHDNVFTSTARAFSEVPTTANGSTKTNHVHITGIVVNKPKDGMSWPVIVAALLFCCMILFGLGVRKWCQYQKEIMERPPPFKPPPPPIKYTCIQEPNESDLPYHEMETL
Nature of the assay: FCM on hCD96v2-CHO cells. The method, then: FIG. 6: Binding profiles of anti-hCD96 antibodies on human CD96-transfected CHO cells (hCD96v2, short isoform). CHO cells expressing hCD96v2 were incubated with serial dilution of the indicated mIgG1 or mIgG2a anti-CD96 or isotype control antibodies. […] The results are expressed as the difference of mean fluorescence intensity (delta MFI) between cells stained with antibodies and cells without antibodies. Dose response curves were obtained from GraphPad prism software using a non-linear regression fit with a variable slope model (4 parameters). To simplify the reading, results from the various anti-hCD96 candidates are shown on 4 different panels.
The capacity of the identified mouse anti-CD96 antibodies to recognize the cell membrane expressed human CD96 was further analyzed by flow cytometry (FCM) by using CHO cells stably transfected with the CD96 short isoform v2 (CD96v2; Genbank accession number NM_005816, flanked in C-terminus with HA-tag) (SEQ ID NO: 268).
Mouse anti-CD96 antibodies and isotype control antibodies were incubated at various concentrations from 10 μg/mL to 4.6 ng/mL with CHO cells expressing human CD96 at +4° C. for 30 minutes. […] The differences between the mean fluorescence intensity (MFI) obtained for each of the antibody concentration and the intensity obtained in absence of primary antibody (delta-MFI), were calculated and plotted against the concentrations of antibodies.

The target in assay [2] is T1, human CD96 short isoform v2 expressed …. Nature of the assay: FCM, inhibition of hCD155-Fc binding to hCD96v2-CHO cells. The method, then: All candidates except BL006-2-19 that bound very weakly on hCD96v2 by FCM were tested for their capacity to inhibit the binding of human CD155 to hCD96v2 stably expressed on CHO cells. Human CD96-transfected CHO cells (3×10⁵ cells/well of 96-well plate) were incubated at +4° C. for 30 minutes with serial dilutions of anti-CD96 antibodies or isotype control antibody (in mIgG2a or mIgG2aD265A format) in the presence of 4 μg/mL of biotinylated hCD155-Fc (produced and biotinylated at BliNK).
% inhibition=(1−(MFI_wAb&CD155−MFI_CHO)/(MFI_wCD155−MFI_CHO))×100, where MFI_wAb&CD155 is the Mean Intensity Fluorescence (MFI) obtained with the hCD96-CHO cells incubated with the tested antibody and hCD155-hFc; MFI_CHO is the MFI obtained in the absence of hCD155 and mAbs; and MFI_wCD155 is the fluorescence with hCD155 but without pre-incubation with antibody (0% CD155 binding inhibition). The % of inhibition was plotted against antibody concentration and the IC50 values were calculated by using a nonlinear regression analysis model of the GraphPad Prism software.

For assay [3], the target named is T2, rhesus CD96 transiently expressed on CHO cells (rhesus, UniProt P40200 22-585 (human entry)).
T2 construct: also called rhesus CD96, short isoform
T2 chain: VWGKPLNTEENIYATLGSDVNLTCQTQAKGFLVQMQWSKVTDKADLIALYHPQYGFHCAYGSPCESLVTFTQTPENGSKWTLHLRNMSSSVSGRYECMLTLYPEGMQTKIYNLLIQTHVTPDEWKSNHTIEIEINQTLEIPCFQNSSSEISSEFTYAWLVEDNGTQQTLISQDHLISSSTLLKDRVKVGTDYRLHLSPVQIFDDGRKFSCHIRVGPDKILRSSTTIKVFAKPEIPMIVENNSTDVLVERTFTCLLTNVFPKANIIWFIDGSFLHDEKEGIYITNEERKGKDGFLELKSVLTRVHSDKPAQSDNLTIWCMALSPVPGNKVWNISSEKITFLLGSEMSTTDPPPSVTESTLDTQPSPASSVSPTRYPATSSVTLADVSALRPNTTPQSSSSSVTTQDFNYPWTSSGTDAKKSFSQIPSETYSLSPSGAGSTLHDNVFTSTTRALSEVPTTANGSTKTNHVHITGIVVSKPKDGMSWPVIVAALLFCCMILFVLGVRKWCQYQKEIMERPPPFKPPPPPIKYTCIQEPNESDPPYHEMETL
Nature of the assay: flow cytometry on CHO cells transiently expressing rhesus CD96; antibody at 1 (thin line) and 10 µg/ml (thick dashed line), filled grey = isotype control. How it is done:
FIG. 7: Binding profiles of anti-CD96 antibodies on CHO cells transfected with rhesus CD96. Anti-CD96 antibodies or the corresponding isotype control mAbs were tested for their capacity to recognize rhesus CD96 transiently expressed on CHO cells by flow cytometry. Each histogram represents the overlay of the fluorescence intensity obtained for each antibody tested at 1 (black line) and 10 μg/ml (thick dashed black line) and compared to the fluorescence obtained with an isotypic control (filled grey histogram).
(§1) The capacity of the identified mouse anti-human CD96 antibodies to recognize the CD96 protein from other species was further analyzed by flow cytometry by using CHO cells expressing the mouse or the rhesus CD96. The expression of the species-specific CD96 on CHO cell surface was confirmed by using staining with appropriate anti-CD96 antibodies and flow cytometry on non-fixed cells. The rat anti-mCD96 antibody clone #630612 (R&D Systems) and the candidate BL006-9-1 (positive by ELISA on rhesus CD96) were used to confirm the expression of rhesus CD96, while the clone 6A6 (rat IgG2a, e-Bioscience) was used to verify the expression of mouse CD96.
(§2) Mouse anti-CD96 antibodies and isotype control antibodies were incubated at 10 or 1 μg/mL with CHO cells expressing different CD96 species at +4° C. for 30 minutes.
(In general: In flow cytometry, cells or beads pass a laser one at a time.)

In assay [4] the target is T3, mouse CD96 expressed on CHO cells (mouse, UniProt Q3U0X8 22-602).
T3 construct: whole, on cells; also called mCD96
T3 sequence (looked up): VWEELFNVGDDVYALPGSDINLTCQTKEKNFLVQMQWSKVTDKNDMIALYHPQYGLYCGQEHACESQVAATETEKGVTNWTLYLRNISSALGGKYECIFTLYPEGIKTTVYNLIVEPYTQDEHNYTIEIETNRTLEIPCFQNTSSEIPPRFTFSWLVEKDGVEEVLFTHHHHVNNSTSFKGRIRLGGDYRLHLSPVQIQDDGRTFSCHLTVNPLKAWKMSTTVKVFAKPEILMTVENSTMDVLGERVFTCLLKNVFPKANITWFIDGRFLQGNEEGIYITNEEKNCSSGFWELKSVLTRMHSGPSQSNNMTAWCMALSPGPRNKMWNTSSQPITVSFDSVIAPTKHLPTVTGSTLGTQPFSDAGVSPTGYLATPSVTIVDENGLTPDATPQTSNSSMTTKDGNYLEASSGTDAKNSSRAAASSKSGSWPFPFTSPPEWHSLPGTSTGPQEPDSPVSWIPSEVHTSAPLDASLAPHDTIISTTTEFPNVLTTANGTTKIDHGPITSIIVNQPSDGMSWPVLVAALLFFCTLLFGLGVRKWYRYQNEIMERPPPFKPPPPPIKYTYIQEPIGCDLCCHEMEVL
Nature of the assay: FCM on CHO cells expressing mouse CD96.
Text: as §1, §2

B1: BL006-9-1G1-1K1 (antibody, V domains shown)
VH: EVKLVESGGGLVKPGGSLKLSCAASGFTFSSYAMSWVRQTPERGLEWVAAIQSNGGSTFYPDTVKDRFTISRDNAKNTLYLQMSSLRSEDTALYYCVRGPFDYWGQGTTLTVSS
VL: QIVLTQSPAIMSASPGQKVTIPCSASSSVNYIHWFQQKLGSSPKLWIYDTSKLTPGVPARFSGSGSGTSYSLTISSMEAEDAASYFCHQWRSYPPTFGGGTKLEIK
notes: Recombinant mIgG2a/kappa (also made as mIgG2a-D265A); also called candidate NO 11
What is called EC50 is the concentration that produces a half-maximal response. Read a high EC50 as a need for much substance. With B1, in assay [1], a half-maximal response (EC50) required 17.5 nM and the “Maximum binding (delta MFI)” value is 514000 delta MFI. Besides, the “Maximal Inhibition Capacity (%)” value in assay [2] was under 5%. The binding result in assay [3] is reported as “binds”. Further, the binding result in assay [4] is “no binding (tested: 1 and 10 µg/mL)”.

B2: BL006-19-183G3-183K4 (antibody, V domains shown)
VH: QVTLNESGPGILQPSQTLSLTCSFSGFSLTTYGMGVGWIRQPSGKSLEWLANIWWTEDKYYNSALKSRLTISTDTSHNQVFLKISSVDTEDTATYYCAQMGPEVYSAMDYWGQGTSVTVSS
VL: DIVMTPSQKFMSTTVGDRVSITCKASQNVGTAVAWYQQKPGHSPKLLIYSASNRNTGVPDRFTGSGSGTDFTLTISNMQSEDLADYFCHQYSRYPWTFGGGTKLEIK
notes: Recombinant mIgG2a/kappa (also made as mIgG2a-D265A); also called BL006-19-183G3-183K4 #3; candidate NO 8
As usually defined, the IC50 is the concentration needed to halve the response being measured. Higher therefore signals a need for much substance. With B2, in assay [1], a half-maximal response (EC50) required 4.56 nM and the “Maximum binding (delta MFI)” value came out at 681000 delta MFI. Moreover, in assay [2], the IC50 turned out to be 15 nM and the “Maximal Inhibition Capacity (%)” value was 100%. For the same molecule, the binding result in assay [3] is “no binding (tested: 10 µg/ml)”. Moreover, the binding result in assay [4] was “no binding (tested: 1 and 10 µg/mL)”.

B3: BL006-4-61G5-61K1 (antibody, V domains shown)
VH: EVKLEESGGGLVQPGGSMKLSCVASGFTFSNYWMNWVRQSPEKGLEWVAQIRFKSDNYATHYAESVKGRFTISRDDSKSSVYLQMHNLRAEDTGIYYCTEFAYWGQGTLVTVSA
VL: QILLTQSPAIMSASPGEKVTMTCSASSRVNSRFLNWYQQKSGVSPKLWIYGTSNLASGVPARFSGSGSGTSYSLTISSVEAEDVATYYCQQYQSDPPITFGAGTRLELI
notes: Recombinant mIgG2a/kappa (also made as mIgG2a-D265A); also called BL006-4-61G5-61K1 #7; candidate NO 3
B3: in assay [1], the response was half-maximal at 2.05 nM (EC50) and the “Maximum binding (delta MFI)” value turned out to be 330000 delta MFI. In addition, the “Maximal Inhibition Capacity (%)” value in assay [2] is under 5%. Also, the binding result in assay [3] is given as “binds”. Also, the binding result in assay [4] is “no binding (tested: 1 and 10 µg/mL)”.

B4: BL006-19-21G1-21K1 (antibody, V domains shown)
VH: QVQLQQPGAELVKPGASVKMSCKASGYTFISYWITWVKQRPGQGLEWIGDIYPGSGHTNYNEKFKSKATLTVDTSSSTAYMQLSSLTSEDSAVYYCARPTVEAMDYWGQGTSVTVSS
VL: QIVLTQSPAIMSASPGEKVTMTCSASSSVNYMHWYQQRSGTSPKRWIYDTSKLASGVPARFSGSGSGTSYSLTISSMEAEDAATYYCQQWSNNPLTFGAGTKLELK
notes: Recombinant mIgG2a/kappa (also made as mIgG2a-D265A); also called candidate NO 13
For B4, in assay [1], the EC50 amounted to 6.53 nM and the “Maximum binding (delta MFI)” value was determined as 599000 delta MFI. Further, in assay [2], the IC50 was found to be 19.4 nM and the “Maximal Inhibition Capacity (%)” value came out at 100%. Moreover, in assay [3], the binding result is listed as “binds”. The binding result in assay [4] was “no binding (tested: 1 and 10 µg/mL)”.

B5: BL006-19-55G10-55K7 (antibody, V domains shown)
VH: QVQLQQSGAEVVRPGTSVKMSCKAAGYTFTDNWIDWVKQRPGHGLDWIGNIFPGGNYTNYNEKFKGKATLTADTSSSTAYMQLINLTSEDSAIYYCVRAVADSQFAYWGQGTLVTVSA
VL: QIVLTQSPAIMSVSPGEKVTMTCSASSRVTYMYWYQQKPGSSPKPWIYRTSNLASGVPVRFSGSGSGTSYSLTISSMEAEDAATYYCQQWSSNPLTFGAGTKLELK
notes: Recombinant mIgG2a/kappa (also made as mIgG2a-D265A); also called candidate NO 15
Consider B5, for which, in assay [1], the concentration giving a half-maximal response (EC50) worked out at 3.3 nM and the “Maximum binding (delta MFI)” value came out at 636000 delta MFI. In assay [2], the IC50 worked out at 8.84 nM and the “Maximal Inhibition Capacity (%)” value amounted to 98.3%. Moreover, the binding result in assay [3] is given as “binds”. Also, the binding result in assay [4] was “no binding (tested: 1 and 10 µg/mL)”.

B6: BL006-11-5G1-5K3 (antibody, V domains shown)
VH: EVQLVESGGGLVKPGGSLKLSCAASGFTFSSYAMSWVRQTPEKRLEWVAAINTDGASTYFPATVKDRFTISRDNAKNTLYLQMSSLRSEDTALYYCARPLEPGSWFAYWGQGTLVTVSA
VL: DVLMTQTPLSLPVSLGDQASISCRSSQSIVHSNGNTYLEWYLQKPGQSPKVLIYKVSNRFSGVPDRISGSGSGTDFTLKISRVEAGDLGVYYCFQGSHVPYTFGGGTKLEIK
notes: Recombinant mIgG2a/kappa (also made as mIgG2a-D265A); also called BL006-11-5G1-5K3 #5; candidate NO 5
Turning to B6, in assay [1], the EC50 is 12.8 nM. Moreover, the “Maximum binding (delta MFI)” value in assay [1] came out at 373000 delta MFI. Further, the “Maximal Inhibition Capacity (%)” value in assay [2] is under 5%. In addition, the binding result is “no binding (tested: 10 µg/ml)” in assay [3]; “no binding (tested: 1 and 10 µg/mL)” in assay [4].
